From patent publication US20060029603A1 (GlaxoSmithKline, published 2006)

B1: H700L11 (antibody, human IgG1, kappa, V domains shown)
VH: QVQLVQSGAEVKKPGASVKVSCKASGYTFTSYWMHWVRQAPGQGLEWIGNINPSNGGTNYNEKFKSRATLTVDKSTSTAYMELSSLRSEDTAVYYCELGQGYWGQGTLVTVSS
VL: DIVITQSPLSLPVTLGQPASISCRSSKSLLYKDGKTYLNWFQQRPGQSPQLLIYLMSTRASGVPDRFSGGGSGTDFTLKISRVEAEDVGVYYCQQLVEYPLTFGQGTKLEIKR
B2: HcL13 (antibody, human IgG1, kappa)
heavy: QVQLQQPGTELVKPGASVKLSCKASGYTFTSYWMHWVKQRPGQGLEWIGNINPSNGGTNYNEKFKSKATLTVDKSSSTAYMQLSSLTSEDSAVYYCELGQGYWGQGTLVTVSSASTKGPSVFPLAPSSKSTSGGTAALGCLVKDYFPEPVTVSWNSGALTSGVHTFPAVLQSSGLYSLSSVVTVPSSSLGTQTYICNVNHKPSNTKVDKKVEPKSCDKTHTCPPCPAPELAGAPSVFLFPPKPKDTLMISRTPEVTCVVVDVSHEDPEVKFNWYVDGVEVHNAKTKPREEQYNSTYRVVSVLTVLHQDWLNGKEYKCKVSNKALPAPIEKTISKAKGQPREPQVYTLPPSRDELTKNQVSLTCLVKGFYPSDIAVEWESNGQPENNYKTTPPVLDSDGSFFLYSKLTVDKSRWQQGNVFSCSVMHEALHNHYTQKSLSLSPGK
light: DIVMTQSPLSLPVTLGQPASISCRSSKSLLYKDGKTYLNWFQQRPGQSPQLLIYLMSTRASGVPDRFSGGGSGTDFTLKISRVEAEDVGVYYCQQLVEYPLTFGQGTKLEIKRTVAAPSVFIFPPSDEQLKSGTASVVCLLNNFYPREAKVQWKVDNALQSGNSQESVTEQDSKDSTYSLSSTLTLSKADYEKHKVYACEVTHQGLSSPVTKSFNRGEC
notes: Chimeric heavy chain Hc paired with humanised light chain L13; The pairing is read from the name
B3: HcL11 (antibody, human IgG1, kappa)
heavy: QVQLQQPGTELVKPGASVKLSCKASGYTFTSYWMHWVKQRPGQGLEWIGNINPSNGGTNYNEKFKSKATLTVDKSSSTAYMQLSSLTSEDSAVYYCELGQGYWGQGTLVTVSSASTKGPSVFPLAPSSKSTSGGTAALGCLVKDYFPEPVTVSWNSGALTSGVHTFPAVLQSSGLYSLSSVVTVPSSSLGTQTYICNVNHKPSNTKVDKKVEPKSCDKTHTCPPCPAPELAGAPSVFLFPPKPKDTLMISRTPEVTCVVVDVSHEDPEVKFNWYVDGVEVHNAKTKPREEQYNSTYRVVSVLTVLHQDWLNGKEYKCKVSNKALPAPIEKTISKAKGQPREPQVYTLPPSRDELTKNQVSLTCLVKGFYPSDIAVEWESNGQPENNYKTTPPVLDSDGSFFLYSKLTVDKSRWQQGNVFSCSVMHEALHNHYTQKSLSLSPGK
light: DIVITQSPLSLPVTLGQPASISCRSSKSLLYKDGKTYLNWFQQRPGQSPQLLIYLMSTRASGVPDRFSGGGSGTDFTLKISRVEAEDVGVYYCQQLVEYPLTFGQGTKLEIKRTVAAPSVFIFPPSDEQLKSGTASVVCLLNNFYPREAKVQWKVDNALQSGNSQESVTEQDSKDSTYSLSSTLTLSKADYEKHKVYACEVTHQGLSSPVTKSFNRGEC
notes: Chimeric heavy chain Hc paired with humanised light chain L11; The pairing is read from the name
B4: H6L6 (antibody, human IgG1, kappa, V domains shown)
VH: QVQLVQSGAEVKKPGASVKVSCKASGYTFTSYWMHWVRQAPGQGLEWIGNINPSNGGTNYNEKFKSRATMTRDTSTSTAYMELSSLRSEDTAVYYCELGQGYWGQGTLVTVSS
VL: DIVMTQSPLSLPVTPGEPASISCRSSKSLLYKDGKTYLNWFLQRPGQSPQLLIYLMSTRASGVPDRFSGSGSGTDFTLKISRVEAEDVGVYYCQQLVEYPLTFGGGTKVEIKR
B5: H5L6 (antibody, human IgG1, kappa, V domains shown)
VH: QVQLVQSGAEVKKPGASVKVSCKASGYTFTSYWMHWVRQAPGQGLEWMGNINPSNGGTNYNEKFKSRVTMTRDTSTSTAYMELSSLRSEDTAVYYCELGQGYWGQGTLVTVSS
VL: DIVMTQSPLSLPVTPGEPASISCRSSKSLLYKDGKTYLNWFLQRPGQSPQLLIYLMSTRASGVPDRFSGSGSGTDFTLKISRVEAEDVGVYYCQQLVEYPLTFGGGTKVEIKR
B6: H10L13 (antibody, V domains shown)
VH: QVQLVQSGAEVKKPGASVKLSCKASGYTFTSYWMHWVKQAPGQGLEWIGNINPSNGGTNYNEKFKSRATLTVDKSTSTAYMELSSLRSEDTAVYYCELGQGYWGQGTLVTVSS
VL: DIVMTQSPLSLPVTLGQPASISCRSSKSLLYKDGKTYLNWFQQRPGQSPQLLIYLMSTRASGVPDRFSGGGSGTDFTLKISRVEAEDVGVYYCQQLVEYPLTFGQGTKLEIK
B7: H14L18 (antibody, human IgG1, kappa, V domains shown)
VH: QVQLVQSGAEVVKPGASVKLSCKASGYTFTSYWMHWVKQAPGQGLEWIGNINPSNGGTNYNEKFKSRATLTRDTSTSTAYMELSSLRSEDTAVYYCELGQGYWGQGTLVTVSS
VL: DIVMTQDPLSNPVTLGQPVSISCRSSKSLLYKDGKTYLNWFLQRPGQSPQLLIYLMSTRASGVSDRFSGSGSGTDFTLKISRVEAEDVGVYYCQQLVEYPLTFGQGTKLEIKR
B8: H6L14 (antibody, human IgG1, kappa)
heavy: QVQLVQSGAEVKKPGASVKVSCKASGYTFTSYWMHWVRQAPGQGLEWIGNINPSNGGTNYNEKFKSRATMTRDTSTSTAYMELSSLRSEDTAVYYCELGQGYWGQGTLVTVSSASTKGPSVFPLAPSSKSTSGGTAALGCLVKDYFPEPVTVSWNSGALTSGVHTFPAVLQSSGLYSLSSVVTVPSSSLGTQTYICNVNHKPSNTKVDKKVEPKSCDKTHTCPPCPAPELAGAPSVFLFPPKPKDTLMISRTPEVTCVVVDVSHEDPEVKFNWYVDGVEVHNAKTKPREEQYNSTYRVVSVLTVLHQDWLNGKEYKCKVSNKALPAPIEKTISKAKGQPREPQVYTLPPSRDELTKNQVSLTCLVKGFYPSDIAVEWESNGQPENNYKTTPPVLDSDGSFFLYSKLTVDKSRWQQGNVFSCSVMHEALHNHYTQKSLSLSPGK
light: DIVMTQSPLSLPVTLGQPASISCRSSKSLLYKDGKTYLNWFLQRPGQSPQLLIYLMSTRASGVPDRFSGGGSGTDFTLKISRVEAEDVGVYYCQQLVEYPLTFGQGTKLEIKRTVAAPSVFIFPPSDEQLKSGTASVVCLLNNFYPREAKVQWKVDNALQSGNSQESVTEQDSKDSTYSLSSTLTLSKADYEKHKVYACEVTHQGLSSPVTKSFNRGEC
notes: Tested as CHO-K1 supernatant
B9: H18L13 (antibody, human IgG1, kappa, V domains shown)
VH: QVQLVQSGAEVVKPGASVKLSCKASGYTFTSYWMHWVKQRPGQGLEWIGNINPSNGGTNYNEKFKSKATLTVDKSSSTAYMELSSLRSEDSAVYYCELGQGYWGQGTLVTVSS
VL: DIVMTQSPLSLPVTLGQPASISCRSSKSLLYKDGKTYLNWFQQRPGQSPQLLIYLMSTRASGVPDRFSGGGSGTDFTLKISRVEAEDVGVYYCQQLVEYPLTFGQGTKLEIKR
notes: Tested as CHO-K1 supernatant
B10: H6L15 (antibody, human IgG1, kappa, V domains shown)
VH: QVQLVQSGAEVKKPGASVKVSCKASGYTFTSYWMHWVRQAPGQGLEWIGNINPSNGGTNYNEKFKSRATMTRDTSTSTAYMELSSLRSEDTAVYYCELGQGYWGQGTLVTVSS
VL: DIVMTQSPLSLPVTLGQPASISCRSSKSLLYKDGKTYLNWFLQRPGQSPQLLIYLMSTRASGVSDRFSGGGSGTDFTLKISRVEAEDVGVYYCQQLVEYPLTFGQGTKLEIKR
notes: Tested as CHO-K1 supernatant
B11: H15L16 (antibody, human IgG1, kappa, V domains shown)
VH: QVQLVQSGAEVVKPGASVKLSCKASGYTFTSYWMHWVKQRPGQGLEWIGNINPSNGGTNYNEKFKSKATLTVDTSSSTAYMELSSLRSEDSAVYYCELGQGYWGQGTLVTVSS
VL: DIVMTQSPLSNPVTLGQPVSISCRSSKSLLYKDGKTYLNWFLQRPGQSPQLLIYLMSTRASGVPDRFSGGGSGTDFTLKISRVEAEDVGVYYCQQLVEYPLTFGQGTKLEIKR
notes: Tested as CHO-K1 supernatant
B12: H6L17 (antibody, human IgG1, kappa, V domains shown)
VH: QVQLVQSGAEVKKPGASVKVSCKASGYTFTSYWMHWVRQAPGQGLEWIGNINPSNGGTNYNEKFKSRATMTRDTSTSTAYMELSSLRSEDTAVYYCELGQGYWGQGTLVTVSS
VL: DIVMTQDPLSLPVTLGQPASISCRSSKSLLYKDGKTYLNWFQQRPGQSPQLLIYLMSTRASGVSDRFSGSGSGTDFTLKISRVEAEDVGVYYCQQLVEYPLTFGQGTKLEIKR
notes: Tested as CHO-K1 supernatant
B13: H14L13 (antibody, human IgG1, kappa, V domains shown)
VH: QVQLVQSGAEVVKPGASVKLSCKASGYTFTSYWMHWVKQAPGQGLEWIGNINPSNGGTNYNEKFKSRATLTRDTSTSTAYMELSSLRSEDTAVYYCELGQGYWGQGTLVTVSS
VL: DIVMTQSPLSLPVTLGQPASISCRSSKSLLYKDGKTYLNWFQQRPGQSPQLLIYLMSTRASGVPDRFSGGGSGTDFTLKISRVEAEDVGVYYCQQLVEYPLTFGQGTKLEIKR
notes: Tested as CHO-K1 supernatant
B14: H6L16 (antibody, human IgG1, kappa)
heavy: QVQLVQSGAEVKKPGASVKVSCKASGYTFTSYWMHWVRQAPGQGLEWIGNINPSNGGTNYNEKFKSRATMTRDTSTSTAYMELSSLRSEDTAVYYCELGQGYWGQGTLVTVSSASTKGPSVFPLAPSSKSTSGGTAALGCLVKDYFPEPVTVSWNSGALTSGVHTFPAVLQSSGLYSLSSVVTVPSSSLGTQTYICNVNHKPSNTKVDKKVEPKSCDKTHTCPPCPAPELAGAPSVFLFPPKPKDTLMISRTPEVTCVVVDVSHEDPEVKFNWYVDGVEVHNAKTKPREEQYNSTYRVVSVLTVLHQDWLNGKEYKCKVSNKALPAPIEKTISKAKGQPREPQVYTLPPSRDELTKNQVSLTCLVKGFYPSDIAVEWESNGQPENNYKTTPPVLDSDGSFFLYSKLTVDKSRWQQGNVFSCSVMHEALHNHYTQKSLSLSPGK
light: DIVMTQSPLSNPVTLGQPVSISCRSSKSLLYKDGKTYLNWFLQRPGQSPQLLIYLMSTRASGVPDRFSGGGSGTDFTLKISRVEAEDVGVYYCQQLVEYPLTFGQGTKLEIKRTVAAPSVFIFPPSDEQLKSGTASVVCLLNNFYPREAKVQWKVDNALQSGNSQESVTEQDSKDSTYSLSSTLTLSKADYEKHKVYACEVTHQGLSSPVTKSFNRGEC
notes: Tested as CHO-K1 supernatant
B15: H17L16 (antibody, human IgG1, kappa)
heavy: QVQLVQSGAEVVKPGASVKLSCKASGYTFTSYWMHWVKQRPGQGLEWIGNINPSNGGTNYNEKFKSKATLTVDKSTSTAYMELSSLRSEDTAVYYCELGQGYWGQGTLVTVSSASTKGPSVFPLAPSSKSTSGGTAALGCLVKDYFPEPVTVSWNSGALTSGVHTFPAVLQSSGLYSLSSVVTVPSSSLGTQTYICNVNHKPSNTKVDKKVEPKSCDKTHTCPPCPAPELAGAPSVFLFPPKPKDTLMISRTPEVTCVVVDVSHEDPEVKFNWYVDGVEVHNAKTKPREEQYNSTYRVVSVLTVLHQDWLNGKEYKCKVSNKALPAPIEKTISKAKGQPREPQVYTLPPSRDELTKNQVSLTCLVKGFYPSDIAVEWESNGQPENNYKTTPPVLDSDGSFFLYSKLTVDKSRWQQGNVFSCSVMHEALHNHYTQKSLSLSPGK
light: DIVMTQSPLSNPVTLGQPVSISCRSSKSLLYKDGKTYLNWFLQRPGQSPQLLIYLMSTRASGVPDRFSGGGSGTDFTLKISRVEAEDVGVYYCQQLVEYPLTFGQGTKLEIKRTVAAPSVFIFPPSDEQLKSGTASVVCLLNNFYPREAKVQWKVDNALQSGNSQESVTEQDSKDSTYSLSSTLTLSKADYEKHKVYACEVTHQGLSSPVTKSFNRGEC
notes: Humanised 2A10

What follows are binders tested against T1, GST-human NOGO-A56 (human, UniProt P08515 1-218 = GST) (assay: SPR (Biacore 3000), GST-human NOGO-A56 on CM5, antibody as analyte; single experiment).
T1 construct: GST-tagged fusion expressed in E. coli BL21 and purified on glutathione-sepharose; coated on ELISA plates or amine-coupled to a CM5 chip; also called hNOGO; recombinant human NOGO
Method: (§1) hNOGO (GST-human NOGO-A56) was immobilised to a CM5 chip by primary amine coupling using the Biacore Wizard program designed for targeted immobilisation levels. The CM5 sensor surface was activated by passing a solution of 50 mM N-hydroxy-succinimide (NHS) and 200 mM N-ethyl-N′-dimethylaminopropyl […] (EDC). Then hNOGO in sodium acetate buffer, pH5.0 or pH 4.5, was passed over the chip and immobilised. After immobilisation was complete any still activated esters were blocked by an injection of 1M ethanolamine hydrochloride, pH8.5.
(§2) The anti-NOGO mAbs were diluted down in HBS-EP (10 mM HEPES, pH 7.4, 150 mM NaCl, 3 mM EDTA, and 0.005% P-20 surfactant) and binding studies were carried out at range of defined antibody concentrations. All runs were referenced against a blanked sensor surface (one that had been activated and blocked as described earlier but had no addition of ligand). Analysis of binding was carried out using the BIAevaluation kinetic analysis software version 4.1. Biacore analysis of other antibodies of the invention essentially followed the same protocol as described herein.

T1 sequence (P08515 1-218, tags or fused parts left off): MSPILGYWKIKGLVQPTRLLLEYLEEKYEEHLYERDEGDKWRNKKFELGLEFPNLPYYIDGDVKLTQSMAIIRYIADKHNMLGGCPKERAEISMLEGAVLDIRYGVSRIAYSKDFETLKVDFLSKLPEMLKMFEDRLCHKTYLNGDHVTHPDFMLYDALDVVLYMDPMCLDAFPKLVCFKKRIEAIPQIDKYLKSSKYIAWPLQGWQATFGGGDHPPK

First: B1
Second: B2
The Kd of the first is 9.8-fold higher: 19.4 nM for the first, 1.98 nM for the second.

Going from B3 to B4, the Kd rises from 3.55 nM to 21.4 nM (6-fold). The first binds more tightly here.

Going from B5 to B6, the Kd falls from 30.3 nM to 12.9 nM (2.3-fold).

Compared with B1, B2 is 2.5-fold lower in koff: 0.0233 s⁻¹ for the first, 0.00938 s⁻¹ for the second.

First: B3
Second: B4
The koff of the first is 1.9-fold lower: 0.0134 s⁻¹ for the first, 0.0254 s⁻¹ for the second.

Going from B5 to B6, the koff falls from 0.047 s⁻¹ to 0.0212 s⁻¹ (2.2-fold).

Compared with B1, B2 is 4-fold higher in kon: 1.19e+06 M⁻¹ s⁻¹ for the first, 4.8e+06 M⁻¹ s⁻¹ for the second.

Compared with B3, B4 is 3.1-fold lower in kon: 3.78e+06 M⁻¹ s⁻¹ for the first, 1.2e+06 M⁻¹ s⁻¹ for the second.

B5 and B6 are within 1.5-fold of each other in kon: 1.5e+06 M⁻¹ s⁻¹ for the first, 1.64e+06 M⁻¹ s⁻¹ for the second.

Target: T1, GST-human NOGO-A56
Assay: as above
Remark: another data set of the same source
Method: (§3) The binding kinetics of the anti-NOGO monoclonal antibody (mAb) to recombinantly expressed human NOGO-A (GST-human NOGO-A56) was analysed using the Biacore3000 biosensor. The hNOGO-A chip was prepared as follows:
as §1, §2

B7 gave a Kd of 3.6 nM.

Work on B7 yielded a koff of 0.00869 s⁻¹.

In the case of B7, the kon is reported as 2.41e+06 M⁻¹ s⁻¹.

The binders below were run against T1, GST-human NOGO-A56 (assay: SPR (Biacore) off-rate ranking, CHO-K1 transient supernatant over GST-human NOGO-A56 chip; single experiment).
Method: as §1
The hNOGO chip was prepared as for kinetic analysis. Cell supernatants where taken directly from transient transfections of CHO-K1 cells. These were passed directly over the sensor surface and the interaction measured. A mock transfected cell supernatant was used for double referencing to remove any artefacts due to the tissue culture media. All runs were referenced against a blanked sensor surface (one that had been activated and blocked as described earlier but had no addition of ligand). Analysis of binding was carried out using the BIAevaluation kinetic analysis software version 4.1.

Compared with B8, B7 is 5.5-fold lower in koff: 0.0457 s⁻¹ for the first, 0.00835 s⁻¹ for the second.

Going from B9 to B10, the koff rises from 0.00907 s⁻¹ to 0.0211 s⁻¹ (2.3-fold).

First: B11
Second: B12
The koff of the first is 2.6-fold lower: 0.00604 s⁻¹ for the first, 0.0158 s⁻¹ for the second.

B13 and B14 are within 1.5-fold of each other in koff: 0.0138 s⁻¹ for the first, 0.0114 s⁻¹ for the second.

The binders below were run against T1, GST-human NOGO-A56 (assay: SPR (Biacore 3000), GST-human NOGO-A56 amine-coupled to CM5, antibody as analyte; mean (SD) of four experiments).
Method: as §3, §1, §2

Binder B15 has a Kd of 1.82 nM.

B15 showed a koff of 0.0061 s⁻¹.

In the case of B15, the kon is reported as 3.38e+06 M⁻¹ s⁻¹.
